Values belong to the binder of their own block, whether it stands above or below them.
Key:
E1 domain of human APLP1 = biological target: T1, E1 domain of human APLP1 (human, UniProt P51693 50-212, biotin (EZ-Link NHS-PEG4-Biotin, 1:1 molar ratio) where immobilised in BLI); experiment: BLI
T1 chain: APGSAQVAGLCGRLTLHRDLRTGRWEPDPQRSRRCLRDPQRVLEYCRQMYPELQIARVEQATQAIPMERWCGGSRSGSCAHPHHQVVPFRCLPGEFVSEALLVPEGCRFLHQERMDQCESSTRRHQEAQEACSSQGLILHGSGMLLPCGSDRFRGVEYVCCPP

E1 domain of chicken APP = biological target: T2, E1 domain of chicken APP (chicken, biotin (EZ-Link NHS-PEG4-Biotin, 1:1 molar ratio) where immobilised in BLI); experiment: BLI
T2 chain: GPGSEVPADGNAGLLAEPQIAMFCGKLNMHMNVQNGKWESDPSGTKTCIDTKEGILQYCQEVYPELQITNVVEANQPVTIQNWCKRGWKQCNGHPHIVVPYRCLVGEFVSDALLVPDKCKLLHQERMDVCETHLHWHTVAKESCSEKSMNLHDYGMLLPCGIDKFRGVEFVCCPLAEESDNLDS

Kd (E1 domain of human APLP1): 10.9 µM
B1: FN1–FN3 region of CNTN5 titrated against human APLP1(E1) and human APLP2(E1) (domain or fragment)
chain: PPGIVIVEEITESTATLSWSPAADNHSPISSYNLQARSPFSLGWQTVKTVPEIITGDMESAMAVDLNPWVEYEFRVVATNPIGTGDPSTPSRMIRTNEAVPKTAPTNVSGRSGRRHELVIAWEPVSEEFQNGEGFGYIVAFRPNGTRGWKEKMVTSSEASKFIYRDESVPPLTPFEVKVGVYNNKGDGPFSQIVVICSAEGEPSAAPTDVKATSVSVSEILVAWKHIKESLGRPQGFEVGYWKDMEQEDTAETVKTRGNESFVILTGLEGNTLYHFTVRAYNGAGYGPPSSEVSATTKKS

Kd (E1 domain of chicken APP): 20.9 µM
B2: FN1–FN3 region of chicken CNTN4, T751A and V752A (domain or fragment)
chain: GSTGSPPGPPEDVTIDEITDTTAQLSWRPGADNHSPITMYVVQARTPFSVGWQAVSTVPEVIDGKTFTATVVGLNPWVEYEFRVVAANLIGIGEPSRPSENRRTEEALPEVTPANVSGGGGSKSELVITWETVPEELQNGGGFGYVVAFRPFGTISWMQAAVASPDASRYVFRNESLPPFSPYEVKVGVYNNKGEGSFSPVTVVYSAEEEPTRAPITVLARSLSATDIEISWAPPRENQHKGRIQGYEVRCWRHDEKEENARKIRTVGNQTSAKVTNLQGNALYHLAVKAYNTAGTGPSSAMVNVTTKK

Kd (E1 domain of human APLP1): 9.1 µM
B3: FN1–FN3 region of CNTN3 titrated against human APLP1(E1) (domain or fragment)
chain: PPENVKVDEITDTTAQLSWKEGKDNHSPVISYSIQARTPFSVGWQTVTTVPEVIDGKTHTATVVELNPWVEYEFRVVASNKIGGGEPSLPSEKVRTEEAVPEVPPSEVNGGGGSRSELVITWDPVPEELQNGEGFGYVVAFRPLGVTTWIQTVVTSPDTPRYVFRNESIVPYSPYEVKVGVYNNKGEGPFSPVTTVFSAEEEPTVAPSQVSANSLSSSEIEVSWNTIPWKLSNGHLLGYEVRYWNGGGKEESSSKMKVAGNETSARLRGLKSNLAYYTAVRAYNSAGAGPFSATVNVTTKKT

Reference: article PMC8808184 (2021)
